This is an account of results in publication PMC2706102 (Nature structural & molecular biology, 2009).

This series deals with the molecule itself. Description: HPLC sedimentation assay of aggregation.

B1: Q35P10 (peptide)
peptide: KKQQQQQQQQQQQQQQQQQQQQQQQQQQQQQQQQQQQPPPPPPPPPPKK
As for B1, the binding result is recorded as “binds”.

B2: Q35 (peptide)
peptide: KKQQQQQQQQQQQQQQQQQQQQQQQQQQQQQQQQQQQKK
For the protein B2, the binding result is “binds”.
